One molecule from publication PMC8178172 (Structure (London, England : 1993), 2021) can be followed below.

For this assay, the target named is human PACRG full-length short isoform (PACRG^FL, 257 a.a.) (human, UniProt Q96M98-2 1-257). As to the kind of experiment: cross-linking.

B1: human MEIG1 (His6 tag cleaved) (natural protein)
chain: MASSDVKPKSVSHAKKWSEEIENLYRFQQAGYRDETEYRQVKQVSMVDRWPETGYVKKLQRRDNTFYYYNKQRECDDKEVHKVKIYAY
As for B1, the binding result is “binds”.
